Test results taken from article doi:10.1101/2025.01.15.633165, “The mechanism of DRB7.2:DRB4 mediated sequestering of endogenous inverted-repeat dsRNA precursors in plants” (bioRxiv, 2025).
Values joined by “and” are separate entries in the source; they are usually repeats but may differ in a detail not shown here. Equal values may be shown once.

B1: DRB7.2 (M1-V190) (natural protein, A. thaliana, UniProt F4JHB3 1-190, looked up)
chain: MDLPPPESSSNPISSFSVAQKRMLLQRCESKFKIRKLNDTVEEDNVTQMEPNFTLENTLVSEPEADLRPHTTEPTTEEETQRSSAKSQLYNLCSVRHWKAPLYEYIAEGPCHMKIFTGKVTVEMKEDSRITVLECFGNPQYKKKIAAEQAAEAALWYLKNVGYTLQTEKASGRKGRSKPISKMMVTGEPV
notes: DRB7.2, A. thaliana, UniProt F4JHB3, residues M1-V190; Perdeuterated and U-15N labelled for NMR; Further cloning details are in Paturi & Deshmukh, 2023; also called full-length DRB7.2
B3: DRB4 (1-355) (natural protein, A. thaliana, UniProt Q8H1D4 1-355, looked up)
chain: MDHVYKGQLQAYALQHNLELPVYANEREGPPHAPRFRCNVTFCGQTFQSSEFFPTLKSAEHAAAKIAVASLTPQSPEGIDVAYKNLLQEIAQKESSLLPFYATATSGPSHAPTFTSTVEFAGKVFSGEEAKTKKLAEMSAAKVAFMSIKNGNSNQTGSPTLPSERQEDVNSNVKSSPQEIHSQPSSKVVMTPDTPSKGIKVNEDEFPDLHDAPASNAKEINVALNEPENPTNDGTLSALTTDGMKMNIASSSLPIPHNPTNVITLNAPAANGIKRNIAACSSWMPQNPTNDGSETSSCVVDESEKKKLIMGTGHLSIPTGQHVVCRPWNPEITLPQDAEMLFRDDKFIAYRLVKP
notes: DRB4, A. thaliana, UniProt Q8H1D4, residues 1-355; source: cloned, expressed and purified as described (Chiliveri et al, 2017)

Legend:
DRB4 (1-355) = molecular target: B3; test: ITC; DRB4 constructs (200 μM, syringe) injected into DRB7.2 or DRB7.2M (20 μM, cell); 25 °C; 50 mM potassium phosphate pH 7.0, 50 mM NaCl, 50 mM Na2SO4, 2 mM DTT; conditions: both partners purified
DRB4C (154-355) = molecular target: T1, DRB4C (154-355) (A. thaliana, UniProt Q8H1D4 154-355); test: as above; conditions: both partners purified
T1 construct: DRB4, A. thaliana, UniProt Q8H1D4, residues 154-355 (flexible segment N154-S293 and domain D3 E294-P355); source: cloned, expressed and purified as described (Chiliveri et al, 2017)
T1 sequence (looked up): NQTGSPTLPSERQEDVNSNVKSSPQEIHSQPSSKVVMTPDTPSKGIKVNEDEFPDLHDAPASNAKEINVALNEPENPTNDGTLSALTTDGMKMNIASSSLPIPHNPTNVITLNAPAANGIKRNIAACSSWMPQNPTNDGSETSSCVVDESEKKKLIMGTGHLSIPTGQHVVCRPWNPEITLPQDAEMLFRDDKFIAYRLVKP

DRB7.2N = molecular target: T2, DRB7.2N (Arabidopsis thaliana, UniProt F4JHB3 1-81); test: EMSA; 20 uM protein, 750 nM RNA; EMSA: 50 mM potassium phosphate pH 7.0, 50 mM NaCl, 50 mM Na2SO4, 2 mM DTT; 40 bp RNA at 750 nM, 30 min, room temperature; 32P 80 bp dsRNA at 1 nM, 1 h, 4 C; conditions: protein: recombinant, tags: His6 (pET28a), label: none (SYBR Gold stain), 1 nt 3' overhang (C) on complementary strand
T2 sequence: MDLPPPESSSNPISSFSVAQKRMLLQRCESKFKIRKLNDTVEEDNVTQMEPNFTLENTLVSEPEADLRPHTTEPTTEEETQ

DRB7.2;DRB4 = molecular target: T3, DRB7.2;DRB4 (Arabidopsis thaliana;Arabidopsis …, UniProt F4JHB3;Q8H1D4 1-190;1-355, |); test: EMSA; apparent Kd; Hill 2.05±0.65; EMSA: 50 mM potassium phosphate pH 7.0, 50 mM NaCl, 50 mM Na2SO4, 2 mM DTT; 40 bp RNA at 750 nM, 30 min, room temperature; 32P 80 bp dsRNA at 1 nM, 1 h, 4 C; conditions: protein: recombinant;recombinant, tags: His6 tag with TEV cleavage (pETtrx-1b);, label: none (SYBR Gold stain), 1 nt 3' overhang (C) on complementary strand
T3 sequence 1: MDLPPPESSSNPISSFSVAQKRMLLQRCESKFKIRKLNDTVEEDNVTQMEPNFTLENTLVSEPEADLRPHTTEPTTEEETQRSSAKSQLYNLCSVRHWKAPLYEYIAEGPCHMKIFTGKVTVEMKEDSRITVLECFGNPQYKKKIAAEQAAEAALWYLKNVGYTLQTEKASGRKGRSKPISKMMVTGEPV
T3 sequence 2: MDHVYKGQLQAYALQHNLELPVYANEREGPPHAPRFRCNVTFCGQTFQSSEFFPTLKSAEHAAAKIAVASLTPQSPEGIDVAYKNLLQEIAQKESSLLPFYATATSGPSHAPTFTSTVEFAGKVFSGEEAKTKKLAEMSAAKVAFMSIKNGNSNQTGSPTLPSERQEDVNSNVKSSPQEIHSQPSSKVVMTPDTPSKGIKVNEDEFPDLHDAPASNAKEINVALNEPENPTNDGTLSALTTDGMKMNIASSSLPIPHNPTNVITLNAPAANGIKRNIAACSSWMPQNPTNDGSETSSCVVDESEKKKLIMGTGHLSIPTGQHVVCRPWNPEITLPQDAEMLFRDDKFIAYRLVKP

DRB4 = molecular target: T4, DRB4 (Arabidopsis thaliana, UniProt Q8H1D4 1-355); test: EMSA; apparent Kd; Hill 2.44±0.45; EMSA: 50 mM potassium phosphate pH 7.0, 50 mM NaCl, 50 mM Na2SO4, 2 mM DTT; 40 bp RNA at 750 nM, 30 min, room temperature; 32P 80 bp dsRNA at 1 nM, 1 h, 4 C; conditions: protein: recombinant, label: none (SYBR Gold stain), 1 nt 3' overhang (C) on complementary strand
T4 sequence: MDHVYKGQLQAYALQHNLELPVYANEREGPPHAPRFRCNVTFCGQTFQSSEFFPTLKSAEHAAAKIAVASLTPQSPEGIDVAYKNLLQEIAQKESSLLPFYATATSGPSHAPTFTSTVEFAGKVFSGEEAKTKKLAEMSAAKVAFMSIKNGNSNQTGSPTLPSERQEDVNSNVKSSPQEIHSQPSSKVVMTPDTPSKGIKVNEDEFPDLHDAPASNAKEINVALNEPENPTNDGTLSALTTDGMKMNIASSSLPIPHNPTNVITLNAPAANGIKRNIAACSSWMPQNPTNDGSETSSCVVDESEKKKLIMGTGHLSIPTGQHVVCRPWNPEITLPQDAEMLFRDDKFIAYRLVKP

DRB7.2 [1] = molecular target: T5, DRB7.2 (Arabidopsis thaliana, UniProt F4JHB3 1-190); test: EMSA; apparent Kd; Hill 2.68±0.77; EMSA: 50 mM potassium phosphate pH 7.0, 50 mM NaCl, 50 mM Na2SO4, 2 mM DTT; 40 bp RNA at 750 nM, 30 min, room temperature; 32P 80 bp dsRNA at 1 nM, 1 h, 4 C; conditions: protein: recombinant, tags: His6 tag with TEV cleavage (pETtrx-1b), label: none (SYBR Gold stain), 1 nt 3' overhang (C) on complementary strand
T5 sequence: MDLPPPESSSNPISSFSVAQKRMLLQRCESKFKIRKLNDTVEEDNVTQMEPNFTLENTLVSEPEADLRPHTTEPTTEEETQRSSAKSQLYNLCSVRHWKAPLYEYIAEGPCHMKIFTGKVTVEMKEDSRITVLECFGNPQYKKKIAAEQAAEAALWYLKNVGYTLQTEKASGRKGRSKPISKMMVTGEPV

DRB4D3 [2] = molecular target: T6, DRB4D3 (Arabidopsis thaliana, UniProt Q8H1D4 294-355); test: EMSA; 20 uM protein, 750 nM RNA; also higher concentrations; EMSA: 50 mM potassium phosphate pH 7.0, 50 mM NaCl, 50 mM Na2SO4, 2 mM DTT; 40 bp RNA at 750 nM, 30 min, room temperature; 32P 80 bp dsRNA at 1 nM, 1 h, 4 C; conditions: protein: recombinant, label: none (SYBR Gold stain), 1 nt 3' overhang (C) on complementary strand
T6 sequence: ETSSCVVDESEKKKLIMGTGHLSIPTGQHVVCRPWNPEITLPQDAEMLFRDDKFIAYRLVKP

DRB7.2 (M1-V190) = molecular target: B1; test: ITC; DRB4 constructs (200 μM, syringe) injected into DRB7.2 or DRB7.2M (20 μM, cell); 25 °C; 50 mM potassium phosphate pH 7.0, 50 mM NaCl, 50 mM Na2SO4, 2 mM DTT; conditions: both partners purified
DRB7.2M (T71-G162) [3] = molecular target: T7, DRB7.2M (T71-G162) (A. thaliana, UniProt F4JHB3 71-162); test: MALDI-TOF MS; samples after SEC; 0.5 mg/mL, 2 mg/mL and 5 mg/mL; conditions: both partners purified
T7 construct: DRB7.2, A. thaliana, UniProt F4JHB3, residues T71-G162 (dsRBD S84-G162 with the N-terminal flanking residues T71-S83); Isotope labelled (15N, 13C, 2H) or perdeuterated for NMR; Further cloning details are in Paturi & Deshmukh, 2023; also called dsRBD region of DRB7.2; DRB7.2 dsRBD
T7 sequence (looked up): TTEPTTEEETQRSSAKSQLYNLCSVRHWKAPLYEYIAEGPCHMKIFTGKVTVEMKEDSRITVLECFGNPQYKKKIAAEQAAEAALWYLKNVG

DRB7.2M (T71-G162) [4] = molecular target: T7, DRB7.2M (T71-G162); test: ITC; DRB4D3 and the preformed complex of DRB7.2M:80 bp dsRNA; one site binding model; conditions: both partners purified
DRB7.2M (T71-G162) [5] = molecular target: T7, DRB7.2M (T71-G162); test: ITC; DRB4 constructs (200 μM, syringe) injected into DRB7.2 or DRB7.2M (20 μM, cell); 25 °C; 50 mM potassium phosphate pH 7.0, 50 mM NaCl, 50 mM Na2SO4, 2 mM DTT; conditions: both partners purified
DRB4D3 [6] = molecular target: T6, DRB4D3; test: EMSA; EMSA: 50 mM potassium phosphate pH 7.0, 50 mM NaCl, 50 mM Na2SO4, 2 mM DTT; 40 bp RNA at 750 nM, 30 min, room temperature; 32P 80 bp dsRNA at 1 nM, 1 h, 4 C; conditions: protein: recombinant; Methods text mentions 1 nt 3' overhang
DRB7.2 [7] = molecular target: T5, DRB7.2; test: EMSA; saturation at ~2 uM; 1 nM RNA, 4 C; EMSA: 50 mM potassium phosphate pH 7.0, 50 mM NaCl, 50 mM Na2SO4, 2 mM DTT; 40 bp RNA at 750 nM, 30 min, room temperature; 32P 80 bp dsRNA at 1 nM, 1 h, 4 C; conditions: protein: recombinant; tags: His6 tag with TEV cleavage (pETtrx-1b); Methods text mentions 1 nt 3' overhang
DRB7.2M = molecular target: T8, DRB7.2M (Arabidopsis thaliana, UniProt F4JHB3 71-162); test: as above; conditions: protein: recombinant; tags: His6 tag with TEV cleavage (pETtrx-1b); Methods text mentions 1 nt 3' overhang
T8 sequence: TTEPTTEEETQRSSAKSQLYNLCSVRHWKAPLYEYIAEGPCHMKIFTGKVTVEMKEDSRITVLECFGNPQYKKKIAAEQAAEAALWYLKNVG

DRB7.2M;DRB4D3 = molecular target: T9, DRB7.2M;DRB4D3 (Arabidopsis thaliana;Arabidopsis …, UniProt F4JHB3;Q8H1D4 71-162;294-355, |); test: EMSA; saturation at ~2 uM; 1 nM RNA, 4 C; ternary complex also in Fig. S11D; EMSA: 50 mM potassium phosphate pH 7.0, 50 mM NaCl, 50 mM Na2SO4, 2 mM DTT; 40 bp RNA at 750 nM, 30 min, room temperature; 32P 80 bp dsRNA at 1 nM, 1 h, 4 C; conditions: protein: recombinant;recombinant; tags: His6 tag with TEV cleavage (pETtrx-1b);; copies: 1;1; Methods text mentions 1 nt 3' overhang
T9 sequence 1: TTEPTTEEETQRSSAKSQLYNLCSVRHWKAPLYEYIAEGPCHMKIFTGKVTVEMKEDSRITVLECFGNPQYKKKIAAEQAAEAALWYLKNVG
T9 sequence 2: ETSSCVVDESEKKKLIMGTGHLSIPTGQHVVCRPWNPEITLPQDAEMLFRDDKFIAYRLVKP

## B1
DRB4 (1-355)
  Kd: 3.1 ± 1.5 nM
DRB4C (154-355)
  Kd: 2.8 ± 1.6 nM

B2: 40 bp RNA (pre-siRNA) (dsRNA)
RNA 1: AACAAGCGAAUGAGUCAUUCAUCCUAAGUCUGCAUAAAGU
RNA 2: ACUUUAUGCAGACUUAGGAUGAAUGACUCAUUCGCUUGUUC
modifications: 5'-phosphate on guide strand
DRB7.2N
  binding result: no binding
DRB7.2;DRB4
  Kd: 1020 ± 170 nM
DRB4
  Kd: 3600 ± 310 nM
DRB7.2 [1]
  Kd: 2280 ± 270 nM
DRB4D3 [2]
  binding result: no binding

## B3
DRB7.2 (M1-V190)
  stoichiometry N: 0.8

B4: DRB4D3 (294-355) (domain or fragment, A. thaliana, UniProt Q8H1D4 294-355, looked up)
chain: ETSSCVVDESEKKKLIMGTGHLSIPTGQHVVCRPWNPEITLPQDAEMLFRDDKFIAYRLVKP
notes: DRB4, A. thaliana, UniProt Q8H1D4, residues 294-355 (E294-P355); Isotope labelled (15N, 13C, 2H) or perdeuterated for NMR; source: cloned, expressed and purified as described (Chiliveri et al, 2017)
DRB7.2M (T71-G162) [3]
  stoichiometry N: 1
DRB7.2M (T71-G162) [4]
  Kd: 9.43 nM and ~9.5 nM
  stoichiometry N: 0.81
DRB7.2 (M1-V190)
  Kd: 2.2 ± 1.2 nM
DRB7.2M (T71-G162) [5]
  Kd: 2.84 ± 1.15 nM
  stoichiometry N: 0.95

B5: 80 bp dsRNA (dsRNA)
RNA 1: GGGUGCUGUUUCUCGUGUUCGUGUUCGUUUCUCUUCUCUUGUCCUUGUUCUGUUCUCCUUUGUUCGUUCCUGUUCCCCUU
RNA 2: AAGGGGAACAGGAACGAACAAAGGAGAACAGAACAAGGACAAGAGAAGAGAAACGAACACGAACACGAGAAACAGCACCC
DRB4D3 [6]
  binding result: no binding
DRB7.2 [7]
  binding result: binds
DRB7.2M
  binding result: binds
DRB7.2M;DRB4D3
  binding result: binds
